Results reported in patent US20150284723A1 (MEDICAL DIAGNOSTIC LABORATORIES, published 2015).
Where a chain is given by its changes, count along the chain named. Blank lines part the entries; values can stand above or below the molecule they belong to.

Legend:
[1] = target: protein phosphatase 2A (PP2A); experiment: cell-based or functional assay
[2] = target: T1, FLAG-tagged PME-1 S156A (catalytically inactive mutant) (human, UniProt Q9Y570 1-386); experiment: FLAG co-immunoprecipitation from ECC-1 lysate, Western blot with anti-Ppp6c
T1 construct: Expressed in stably transfected ECC-1 cells and pulled down with FLAG resin; also called FLAG-PME-1 S156A; FLAG PME-1 S156A; not shown: FLAG tag
T1 sequence (looked up): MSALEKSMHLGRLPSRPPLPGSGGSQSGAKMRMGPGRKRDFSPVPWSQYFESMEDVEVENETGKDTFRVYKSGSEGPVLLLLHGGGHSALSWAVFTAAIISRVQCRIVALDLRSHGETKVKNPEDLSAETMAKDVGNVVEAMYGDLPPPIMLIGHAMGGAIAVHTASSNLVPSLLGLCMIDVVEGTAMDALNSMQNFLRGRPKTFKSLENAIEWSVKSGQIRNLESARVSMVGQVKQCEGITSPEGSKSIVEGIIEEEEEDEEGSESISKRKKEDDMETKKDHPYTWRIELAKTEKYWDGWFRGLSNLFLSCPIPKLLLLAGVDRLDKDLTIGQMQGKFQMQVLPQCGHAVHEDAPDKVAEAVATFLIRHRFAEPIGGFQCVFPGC
Excerpt: (§1) Cells (post-transfection) were collected and cellular protein was extracted. Input depicts the relative expression of each protein in total cell lysate, whereas the elution depicts proteins that were immunoprecipitated with FLAG resin.
(§2) There are other protein phosphatases in the same family as PP2A in cells that share some similarity to PP2A. In this experiment, we examined if PME-1 binding to Ppp2ca is specific over other phosphatases. We chose to examine phosphatase 4 (PP4) and phosphatase 6 (PP6) since the C-terminal tail of the catalytic subunit of PP2A (i.e., Ppp2ca) is TPDYFL (amino acids 304-309 of SEQ ID NO: 12) (the substrate for PME-1 demethylation) is similar to that of protein phosphatase 4 (i.e., Ppp4c) (VADYFL) (amino acids 302-307 of SEQ ID NO: 13) and phosphatase 6 (i.e., Ppp6c), (TTPYFL) (amino acids 300-305 of SEQ ID NO: 14), respectively. Specifically, we examined if PME-1 may bind and demethylate PP4 or PP6.

[3] = target: T2, FLAG-tagged PME-1 (wild-type protein methylesterase 1) (human, UniProt Q9Y570 1-386); experiment: as above
T2 construct: Expressed in stably transfected ECC-1 cells and pulled down with FLAG resin; also called FLAG-PME-1; not shown: FLAG tag
T2 sequence (looked up): T1 sequence (looked up) with A156S
Excerpt: as §1, §2

PP2A phosphatase activity (RL95-2 cells over-expressing PME-1) [1]: 90 % decrease
PP2A phosphatase activity (RL95-2 cells, shRNA against PPME1) (fold increase) [1]: 30
Molecule: PME-1 protein (endogenous, over-expressed or depleted in cells) (from UniProt Q9Y570 2-386) (enzyme)

binding result [2]: no binding
binding result [3]: no binding
B1: Ppp6c, the catalytic subunit of PP6 (endogenous) (enzyme)
chain: MAPLDLDKYVEIARLCKYLPENDLKRLCDYVCDLLLEESNVQPVSTPVTVCGDIHGQFYDLCELFRTGGQVPDTNYIFMGDFVDRGYYSLETFTYLLALKAKWPDRITLLRGNHESRQITQVYGFYDECQTKYGNANAWRYCTKVFDMLTVAALIDEQILCVHGGLSPDIKTLDQIRTIERNQEIPHKGAFCDLVWSDPEDVDTWAISPRGAGWLFGAKVTNEFVHINNLKLICRAHQLVHEGYKFMFDEKLVTVWSAPNYCYRCGNIASIMVFKDVNTREPKLFRAVPDSERVIPPRTTTPYFL
notes: Endogenous protein in the lysate of the human ECC-1 cell line; also called phosphatase 6
